Article PMC2119555
Values joined by “and” are separate entries in the source; they are usually repeats but may differ in a detail not shown here. Identical values can stand only once.

What was measured:
[1] = biological target: murine FGFR-1 (flg) expressed on CHO cells (murine) (UniProt P16092); test: radioligand binding
[2] = biological target: murine FGFR-2 (bek) expressed on CHO cells (murine) (UniProt P21803); test: radioligand binding

B1: recombinant K140 (NH2-terminally truncated K-FGF, residues 67-206) (ligand)
chain: MAAVQSGAGDYLLGIKRLRRLYCNVGIGFHLQALPDGRIGGAHADTRDSLLELSPVERGVVSIFGVASRFFVAMSSKGKLYGSPFFTDECTFKEILLPNNYNAYESYKYPGMFIALSKNGKTKKGNRVSPTMKVTHFLPRL
modifications: 125I-labeled Bolton-Hunter reagent (where used as the labelled ligand)
Kd [1]: 0.09 nM | Kd [2]: 0.06 nM | fold affinity over K-FGF (competition) [2]: 2 fold | fold affinity over bFGF and K-FGF (competition against 125I-bFGF) [2]: 2 fold and 3 fold

B2: recombinant wild-type K-FGF (human K-FGF/HST, FGF-4) (ligand)
chain: APTAPNGTLEAELERRWESLVALSLARLPVAAQPKEAAVQSGAGDYLLGIKRLRRLYCNVGIGFHLQALPDGRIGGAHADTRDSLLELSPVERGVVSIFGVASRFFVAMSSKGKLYGSPFFTDECTFKEILLPNNYNAYESYKYPGMFIALSKNGKTKKGNRVSPTMKVTHFLPRL
modifications: 125I-labeled Bolton-Hunter reagent (where used as the labelled ligand)
Kd [1]: 0.28 nM | fold more unlabeled competitor required than of K140 [1]: 5 fold | Kd [2]: 0.14 nM
